A word on the Km: it is the concentration of substrate that gives half-maximal velocity. For orientation: kcat means the number of substrate molecules converted per active site and unit of time at saturation.

The text below walks through data of doi:10.1101/2020.07.01.179531v1.

Substrate in this series: O=P(O)(O)OC[C@@H](O)[C@@H](O)[C@H](O)[C@H](O)CO
The experiment in a line: purified protein. As to conditions: 3 mM DTT added; other conditions presumably as for EsM1Pase1short.

B1: EsM1Pase2 (Ectocarpus siliculosus) (protein)
chain: MEKAKAFDKMSILFDFDGTIGDTETPAMEVAFWELAPYLPDTTPDKLDGLMPEFVRDNAGKAFEFMVEKVDEDRKAAGLSTISEAFAAKSEPKEMLDAVDPHRKKFGLKTFAELRAPDGGEKENLLIQQKTETVDALSKIAQPCNGVPEVLAALTAAGVAFCISTTSPKPRVPASITACKLDEYFPADKVHSGESDFDPPRFKPNPSVYLKAAETEGKEPANCIAVEDSGSGVGSASNAGVGLTVGYVGASHIPDYKKDTHAEMLMSGGRAENGKGAEIVISDMTDLPKVIEFFAGEKIAGKSAPFDFPEELISSLKQPVWVHSTKA
On to B1, for which the Km was 1300 µM and the kcat was determined as 0.05 s⁻¹.
